Test [1] deals with T1, SARS-CoV-2 wild type receptor binding domain (RBD) (SARS-CoV-2, UniProt P0DTC2). The test is described as follows: crystal structure.
Test [2] addresses T1, SARS-CoV-2 wild type receptor binding …. The test is described as follows: SPR. In general terms: In SPR one partner is held on a chip, and binding of the other changes the refractive index at the surface.

B1: nanobody Nb70 (VHH with 6xHis tag, for crystal structural analysis) (VHH)
VHH: QVQLVESGGGLVQAGGSLRLSCVASGRTFSRYAMGWFRQAPGKEREFVAVIEWDGGTSYYVDSVKGRFTISRDNAKNTVYLQMNSLKPEDTAVYYCAAGGNQYYSATYSIWNEYDFWGQGTQVTVSS
Turning to B1, the binding result in test [1] was “binds”.

B2: VHH72, previously published nanobody (VHH)
VHH: QVQLQESGGGLVQAGGSLRLSCAASGRTFSEYAMGWFRQAPGKEREFVATISWSGGSTYYTDSVKGRFTISRDNAKNTVYLQMNSLKPDDTAVYYCAAAGLGTVVSEWDYDYDYWGQGTQVTVSS
With B2, the binding result in test [2] is “binds”.

B3: nanobody 3-2A2-4 (VHH with 6xHis tag, for crystal structural analysis) (VHH)
VHH: QVQLQESGGGLVQPGESLRLSCAASGSISTLNVMGWYRQAPGKQRELVAQITLDGSPEYADSVKGRFTITKDGAQSTLYLQMNNLKPEDTAVYFCKLENGGFFYYWGQGTQVTVST
For the molecule B3, the binding result in test [1] is “binds”.

Source of the values: paper doi:10.1101/2022.04.12.488087 (bioRxiv, 2022).
